Measurements as given in PMC3348108 (The Journal of Experimental Medicine, 2012).
Where no end group is shown, it is not given here.

B1: DBD–Ligase IV (amino acids 1–240) (domain or fragment)
chain: MAASQTSQTVASHVPFADLCSTLERIQKSKGRAEKIRHFREFLDSWRKFHDALHKNHKDVTDSFYPAMRLILPQLERERMAYGIKETMLAKLYIELLNLPRDGKDALKLLNYRTPTGTHGDAGDFAMIAYFVLKPRCLQKGSLTIQQVNDLLDSIASNNSAKRKDLIKKSLLQLITQSSALEQKWLIRMIIKDLKLGVSQQTIFSVFHNDAAELHNVTTDLEKVCRQLHDPSVGLSDISI

Experiments:
GST–Artemis C terminus = GST–Artemis C terminus (human, UniProt Q96SD1 386-692); experiment: pull-down
[1] = target: B1; experiment: fluorescence polarisation

Chain of GST–Artemis C terminus (Q96SD1 386-692): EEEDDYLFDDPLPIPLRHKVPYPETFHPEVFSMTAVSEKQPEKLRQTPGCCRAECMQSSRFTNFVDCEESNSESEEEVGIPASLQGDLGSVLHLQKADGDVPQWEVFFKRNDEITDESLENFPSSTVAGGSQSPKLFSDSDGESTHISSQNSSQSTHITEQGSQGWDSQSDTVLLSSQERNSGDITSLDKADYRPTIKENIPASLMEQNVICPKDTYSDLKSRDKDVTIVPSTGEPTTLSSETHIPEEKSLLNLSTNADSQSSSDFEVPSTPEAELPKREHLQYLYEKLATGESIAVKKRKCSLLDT

Binder	binding result (GST–Artemis C terminus)	Kd [1] [µM]
B1	binds	–
{FAM}-DVPQWEVFFKR [Ligase IV–interacting human Artemis peptide, WT]	–	~2.6
